Experiment [1] deals with FLAG-tagged wild-type central Reelin fragment (Reelin repeats 3–6), Fc removed (UniProt Q60841). The experiment in a line: SEC; Superose 6 Increase 10/300 GL, A280 traces of heterodimer, FLAG-WT homodimer and His6-K2467A homodimer.
For experiment [2], the target named is His6-tagged K2467A mutant central Reelin fragment (Reelin repeats 3–6), Fc removed (UniProt Q60841). The experiment is described as above.
Experiment [3] concerns the target Fc-fused Reelin heterodimer (FLAG-WT / His6-K2467A central fragment, Fc retained) (UniProt Q60841). The experiment in a line: BLI; BLItz; Fc-fused heterodimer on a Protein A biosensor; dilution series (11 concentrations) of ecto-VLDLR; 20 mM Hepes pH 7.4, 150 mM NaCl, 1 mM CaCl2, 0.2% Tween20, 0.1% BSA; association 45 s, dissociation 60 s without CaCl2 and with 1 mM EDTA; maximum responses fitted to one site specific binding; triplicate.

Turning to “FLAG-tagged wild-type central Reelin fragment (Reelin repeats 3–6), Fc removed (from UniProt Q60841 27-3461) (domain or fragment)”, the stoichiometry N in experiment [1] came out at 2.
“His6-tagged K2467A mutant central Reelin fragment (Reelin repeats 3–6), Fc removed (from UniProt Q60841 27-3461) (domain or fragment)” came in with a stoichiometry N in experiment [2] of 2.
“purified extracellular domain of VLDLR (very-low density lipoprotein receptor) (from UniProt P98155 28-797)” returned a Kd in experiment [3] of 129 nM.

The values above are taken from article PMC7701066.
